Assay results published in paper PMC3901934, “CAS directly interacts with vinculin to control mechanosensing and focal adhesion dynamics” (Cellular and Molecular Life Sciences: CMLS, 2013).

Biological target: T1, Vin WT GFP (GFP-fused vinculin WT) (UniProt Q64727 1-1066)
T1 sequence (looked up): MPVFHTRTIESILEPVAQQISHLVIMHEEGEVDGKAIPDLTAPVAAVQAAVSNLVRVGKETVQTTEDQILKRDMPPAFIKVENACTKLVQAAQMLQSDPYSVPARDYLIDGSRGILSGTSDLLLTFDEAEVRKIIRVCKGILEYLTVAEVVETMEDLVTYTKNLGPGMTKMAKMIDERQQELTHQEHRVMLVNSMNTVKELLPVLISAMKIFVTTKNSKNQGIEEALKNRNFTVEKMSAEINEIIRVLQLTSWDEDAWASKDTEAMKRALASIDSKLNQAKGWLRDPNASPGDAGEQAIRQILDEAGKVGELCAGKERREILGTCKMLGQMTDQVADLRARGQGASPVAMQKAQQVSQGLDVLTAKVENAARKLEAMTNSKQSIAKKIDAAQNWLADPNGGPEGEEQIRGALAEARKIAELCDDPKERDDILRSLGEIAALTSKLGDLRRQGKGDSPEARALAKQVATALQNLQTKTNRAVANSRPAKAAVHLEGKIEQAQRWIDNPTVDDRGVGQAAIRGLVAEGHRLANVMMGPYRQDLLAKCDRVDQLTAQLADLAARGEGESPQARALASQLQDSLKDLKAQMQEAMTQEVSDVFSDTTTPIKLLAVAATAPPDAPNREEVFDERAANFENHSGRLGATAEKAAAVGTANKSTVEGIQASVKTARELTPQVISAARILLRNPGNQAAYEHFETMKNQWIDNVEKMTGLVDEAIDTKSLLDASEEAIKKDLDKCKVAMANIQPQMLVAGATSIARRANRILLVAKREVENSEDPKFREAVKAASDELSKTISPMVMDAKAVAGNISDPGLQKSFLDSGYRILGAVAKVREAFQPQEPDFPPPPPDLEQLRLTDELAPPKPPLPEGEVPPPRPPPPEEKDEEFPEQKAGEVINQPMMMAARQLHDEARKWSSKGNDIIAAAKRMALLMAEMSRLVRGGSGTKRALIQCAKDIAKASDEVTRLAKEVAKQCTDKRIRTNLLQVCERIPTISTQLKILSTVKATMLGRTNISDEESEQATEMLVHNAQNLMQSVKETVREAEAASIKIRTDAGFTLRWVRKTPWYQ
Assay: cell-based or functional assay

B1: full-length CAS (in Vin-/- MEFs) (natural protein, mouse (endogenous in MEFs), UniProt Q61140 1-874, looked up)
chain: MTVPNVLAKALYDNVAESPDELSFRKGDIMTVLERDTQGLDGWWLCSLHGRQGIVPGNRLKILVGMYDKKPVGPGPGPPATPPQPQPSLPQGVHAPVPPASQYSPMLPTAYQPQSDNVYLVPTPSKTQQGLYQAPGPNPQFQSPPAKQTSTFSKQTPHHSFPSPATDLYQVPPGPGSPAQDIYQVPPSAGIGHDIYQVPPSLDTRGWEGTKPPAKVVVPTRVGQGYVYEAAQTEQDEYDTPRHLLAPGPQDIYDVPPVRGLLPNQYGQEVYDTPPMAVKGPNGRDPLLDVYDVPPSVEKGLLSSSHHSVYDVPPSVSKDVPDGPLLREETYDVPPAFAKPKPFDPTRHPLILAAPPPDSPAAEDVYDVPPPAPDLYDVPPGLRRPGPGTLYDVPRERVLPPEVADGSVVDDGVYAVPPPAEREAPTDGKRLSASSTGSTRSSQSASSLEVVVPGREPLELEVAVESLARLQQGVSTTVAHLLDLVGSASGPGGWRGTSEPQEPPAQDLKAAVAAVHGAVHELLEFARGAVSNATHTSDRTLHAKLSRQLQKMEDVYQTLVVHGQVLDSGRGSPGFTPEDLDRLVACSRAVPEDAKQLASFLHGNASLLFRRTKAPGPGPEGSSSLHPNPTDKASSIQSRPLPSPPKFTSQDSPDGQYENSEGGWMEDYDYVHLQGKEEFEKTQKELLERGNIMRQGKGQLELQQLKQFERLEQEVSRPIDHDLANWTPAQPLVPGRTGGLGPSDRQLLLFYLEQCEANLTTLTDAVDAFFTAVATNQPPKIFVAHSKFVILSAHKLVFIGDTLSRQAKAADVRSQVTHYSNLLCDLLRGIVATTKAAALQYPSPSAAQDMVDRVKELGHSTQQFRRVLGQLAAA
fold change of CAS Y410 phosphorylation after 20 % static stretch for 10 min, Vin-/- MEFs re-expressing WT vinculin: 2.4 fold
